# Assay results: patent US20200024322A1 (Eli Lilly, published 2020)
# Numbered stars: 1 amine (or outer) side, 2 acyl side, 3 side chain; on linkers, the order of the positions; unused ones are H or OH. Square brackets hold non-standard residues; d marks the D form. Side chains are listed from the residue outwards. Ends that are not written are not given here. * marks the point of attachment. C20 diacid = O=C(O)CCCCCCCCCCCCCCCCCCC(=O)*; C18 diacid = O=C(O)CCCCCCCCCCCCCCCCC(=O)*; γGlu = O=C(O)[C@H](CCC(=O)[*:2])N[*:1]; AEEA = NCCOCCOCC(=O)O; Aib = CC(C)(N)C(=O)O
# T1: human GIP receptor (human, UniProt P48546 22-466)
# T1 construct: whole, on cells; also called hGIPR; hGIP-R
# T1 sequence (looked up): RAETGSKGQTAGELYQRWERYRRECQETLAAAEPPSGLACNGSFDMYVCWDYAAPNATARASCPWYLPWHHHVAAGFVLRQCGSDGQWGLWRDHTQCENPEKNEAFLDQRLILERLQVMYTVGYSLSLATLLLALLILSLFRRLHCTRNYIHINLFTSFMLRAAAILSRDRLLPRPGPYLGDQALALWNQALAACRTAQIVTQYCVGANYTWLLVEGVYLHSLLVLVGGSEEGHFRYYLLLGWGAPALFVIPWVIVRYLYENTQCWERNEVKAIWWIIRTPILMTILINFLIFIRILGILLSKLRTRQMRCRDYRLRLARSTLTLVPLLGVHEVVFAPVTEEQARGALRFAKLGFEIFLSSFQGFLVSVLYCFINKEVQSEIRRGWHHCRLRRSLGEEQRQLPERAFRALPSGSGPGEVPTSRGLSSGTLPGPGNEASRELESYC
# Legend:
# [1] = target: T1, human GIP receptor; test: [125I]-GIP competition SPA, hGIPR membranes
# Description: The binding buffer contains 25 mM HEPES, pH 7.4, 2.5 mM CaCl₂, 1 mM MgCl₂, 0.1% (w/v) bacitracin, 0.003% (w/v) TWEEN®-20, and Roche Complete™ Protease Inhibitors without EDTA. […] Plates are sealed and mixed on a plate shaker (setting 6) for 1 minute and read with a PerkinElmer Trilux MicroBeta® scintillation counter after 2.5 to 12 hours of incubation/settling time at room temperature.
# (§1) Data are analyzed using four-parameter (curve maximum, curve minimum, IC₅₀, Hill slope) nonlinear regression routines (Genedata Screener, version 12.0.4, Genedata AG, Basal, Switzerland). […] Values for Kᵢ are reported as the geometric mean, with error expressed as the standard error of the mean (SEM) and n is equal to the number of independent replicates (determined in assays performed on different days). Geometric Means are calculated as follows: […]
# [2] = target: T2, human GLP-1 receptor (human, UniProt P43220 24-463); test: [125I]-GLP-1 competition SPA, hGLP-1R membranes
# T2 construct: whole, on cells; also called hGLP-1R; hGLP1R
# Description: The binding buffer contains 25 mM HEPES, pH 7.4, 2.5 mM CaCl₂, 1 mM MgCl₂, 0.1% (w/v) bacitracin, 0.003% (w/v) TWEEN®-20, and Roche Complete™ Protease Inhibitors without EDTA.
# as §1
binder,measurement,setting,value
Y[Aib]EGTFTSDYSILLDKK([AEEA-AEEA-γGlu-C18 diacid])AQ[Aib]DFIEYLIEGGPSSG-NH2 (N-terminus assumed; SMILES CC[C@H](C)[C@H](NC(=O)[C@H](CC(C)C)NC(=O)[C@H](Cc1ccc(O)cc1)NC(=O)[C@H](CCC(=O)O)NC(=O)[C@@H](NC(=O)[C@H](Cc1ccccc1)NC(=O)[C@H](CC(=O)O)NC(=O)C(C)(C)NC(=O)[C@H](CCC(N)=O)NC(=O)[C@H](C)NC(=O)[C@H](CCCCNC(=O)COCCOCCNC(=O)COCCOCCNC(=O)CC[C@H](NC(=O)CCCCCCCCCCCCCCCCC(=O)O)C(=O)O)NC(=O)[C@H](CCCCN)NC(=O)[C@H](CC(=O)O)NC(=O)[C@H](CC(C)C)NC(=O)[C@H](CC(C)C)NC(=O)[C@@H](NC(=O)[C@H](CO)NC(=O)[C@H](Cc1ccc(O)cc1)NC(=O)[C@H](CC(=O)O)NC(=O)[C@H](CO)NC(=O)[C@@H](NC(=O)[C@H](Cc1ccccc1)NC(=O)[C@@H](NC(=O)CNC(=O)[C@H](CCC(=O)O)NC(=O)C(C)(C)NC(=O)[C@@H](N)Cc1ccc(O)cc1)[C@@H](C)O)[C@@H](C)O)[C@@H](C)CC)[C@@H](C)CC)C(=O)N[C@@H](CCC(=O)O)C(=O)NCC(=O)NCC(=O)N1CCC[C@H]1C(=O)N[C@@H](CO)C(=O)N[C@@H](CO)C(=O)NCC(N)=O) [Example 320],Ki,[1],0.136 nM
same,Ki,[2],5.17 nM
Y[Aib]EGTFTSDYSILLDEK([AEEA-AEEA-γGlu-C18 diacid])AQ[Aib]AFIEYLIEGG-NH2 (N-terminus assumed; SMILES CC[C@H](C)[C@H](NC(=O)[C@H](CC(C)C)NC(=O)[C@H](Cc1ccc(O)cc1)NC(=O)[C@H](CCC(=O)O)NC(=O)[C@@H](NC(=O)[C@H](Cc1ccccc1)NC(=O)[C@H](C)NC(=O)C(C)(C)NC(=O)[C@H](CCC(N)=O)NC(=O)[C@H](C)NC(=O)[C@H](CCCCNC(=O)COCCOCCNC(=O)COCCOCCNC(=O)CC[C@H](NC(=O)CCCCCCCCCCCCCCCCC(=O)O)C(=O)O)NC(=O)[C@H](CCC(=O)O)NC(=O)[C@H](CC(=O)O)NC(=O)[C@H](CC(C)C)NC(=O)[C@H](CC(C)C)NC(=O)[C@@H](NC(=O)[C@H](CO)NC(=O)[C@H](Cc1ccc(O)cc1)NC(=O)[C@H](CC(=O)O)NC(=O)[C@H](CO)NC(=O)[C@@H](NC(=O)[C@H](Cc1ccccc1)NC(=O)[C@@H](NC(=O)CNC(=O)[C@H](CCC(=O)O)NC(=O)C(C)(C)NC(=O)[C@@H](N)Cc1ccc(O)cc1)[C@@H](C)O)[C@@H](C)O)[C@@H](C)CC)[C@@H](C)CC)C(=O)N[C@@H](CCC(=O)O)C(=O)NCC(=O)NCC(N)=O) [Example 269],Ki,[1],0.152 nM
same,Ki,[2],7.1 nM
Y[Aib]EGTFTSDYSILLDKK([AEEA-AEEA-γGlu-C18 diacid])AQ[Aib]EFIEYLIEGG-NH2 (N-terminus assumed; SMILES CC[C@H](C)[C@H](NC(=O)[C@H](CC(C)C)NC(=O)[C@H](Cc1ccc(O)cc1)NC(=O)[C@H](CCC(=O)O)NC(=O)[C@@H](NC(=O)[C@H](Cc1ccccc1)NC(=O)[C@H](CCC(=O)O)NC(=O)C(C)(C)NC(=O)[C@H](CCC(N)=O)NC(=O)[C@H](C)NC(=O)[C@H](CCCCNC(=O)COCCOCCNC(=O)COCCOCCNC(=O)CC[C@H](NC(=O)CCCCCCCCCCCCCCCCC(=O)O)C(=O)O)NC(=O)[C@H](CCCCN)NC(=O)[C@H](CC(=O)O)NC(=O)[C@H](CC(C)C)NC(=O)[C@H](CC(C)C)NC(=O)[C@@H](NC(=O)[C@H](CO)NC(=O)[C@H](Cc1ccc(O)cc1)NC(=O)[C@H](CC(=O)O)NC(=O)[C@H](CO)NC(=O)[C@@H](NC(=O)[C@H](Cc1ccccc1)NC(=O)[C@@H](NC(=O)CNC(=O)[C@H](CCC(=O)O)NC(=O)C(C)(C)NC(=O)[C@@H](N)Cc1ccc(O)cc1)[C@@H](C)O)[C@@H](C)O)[C@@H](C)CC)[C@@H](C)CC)C(=O)N[C@@H](CCC(=O)O)C(=O)NCC(=O)NCC(N)=O) [Example 271],Ki,[1],0.107 nM
same,Ki,[2],5.09 nM
Y[Aib]EGTFTSDYSILLDKK([AEEA-AEEA-γGlu-C18 diacid])AQ[Aib]EFIEYLIAGG-NH2 (N-terminus assumed; SMILES CC[C@H](C)[C@H](NC(=O)[C@H](CC(C)C)NC(=O)[C@H](Cc1ccc(O)cc1)NC(=O)[C@H](CCC(=O)O)NC(=O)[C@@H](NC(=O)[C@H](Cc1ccccc1)NC(=O)[C@H](CCC(=O)O)NC(=O)C(C)(C)NC(=O)[C@H](CCC(N)=O)NC(=O)[C@H](C)NC(=O)[C@H](CCCCNC(=O)COCCOCCNC(=O)COCCOCCNC(=O)CC[C@H](NC(=O)CCCCCCCCCCCCCCCCC(=O)O)C(=O)O)NC(=O)[C@H](CCCCN)NC(=O)[C@H](CC(=O)O)NC(=O)[C@H](CC(C)C)NC(=O)[C@H](CC(C)C)NC(=O)[C@@H](NC(=O)[C@H](CO)NC(=O)[C@H](Cc1ccc(O)cc1)NC(=O)[C@H](CC(=O)O)NC(=O)[C@H](CO)NC(=O)[C@@H](NC(=O)[C@H](Cc1ccccc1)NC(=O)[C@@H](NC(=O)CNC(=O)[C@H](CCC(=O)O)NC(=O)C(C)(C)NC(=O)[C@@H](N)Cc1ccc(O)cc1)[C@@H](C)O)[C@@H](C)O)[C@@H](C)CC)[C@@H](C)CC)C(=O)N[C@@H](C)C(=O)NCC(=O)NCC(N)=O) [Example 297],Ki,[1],0.0958 nM
same,Ki,[2],2.98 nM
Y[Aib]EGTFTSDYSILLDKK([AEEA-AEEA-γGlu-C20 diacid])AQ[Aib]EFIEYLIAGGPSSGAPPPS-NH2 (N-terminus assumed; SMILES CC[C@H](C)[C@H](NC(=O)[C@H](CC(C)C)NC(=O)[C@H](Cc1ccc(O)cc1)NC(=O)[C@H](CCC(=O)O)NC(=O)[C@@H](NC(=O)[C@H](Cc1ccccc1)NC(=O)[C@H](CCC(=O)O)NC(=O)C(C)(C)NC(=O)[C@H](CCC(N)=O)NC(=O)[C@H](C)NC(=O)[C@H](CCCCNC(=O)COCCOCCNC(=O)COCCOCCNC(=O)CC[C@H](NC(=O)CCCCCCCCCCCCCCCCCCC(=O)O)C(=O)O)NC(=O)[C@H](CCCCN)NC(=O)[C@H](CC(=O)O)NC(=O)[C@H](CC(C)C)NC(=O)[C@H](CC(C)C)NC(=O)[C@@H](NC(=O)[C@H](CO)NC(=O)[C@H](Cc1ccc(O)cc1)NC(=O)[C@H](CC(=O)O)NC(=O)[C@H](CO)NC(=O)[C@@H](NC(=O)[C@H](Cc1ccccc1)NC(=O)[C@@H](NC(=O)CNC(=O)[C@H](CCC(=O)O)NC(=O)C(C)(C)NC(=O)[C@@H](N)Cc1ccc(O)cc1)[C@@H](C)O)[C@@H](C)O)[C@@H](C)CC)[C@@H](C)CC)C(=O)N[C@@H](C)C(=O)NCC(=O)NCC(=O)N1CCC[C@H]1C(=O)N[C@@H](CO)C(=O)N[C@@H](CO)C(=O)NCC(=O)N[C@@H](C)C(=O)N1CCC[C@H]1C(=O)N1CCC[C@H]1C(=O)N1CCC[C@H]1C(=O)N[C@@H](CO)C(N)=O) [Example 319],Ki,[1],0.0349 nM
same,Ki,[2],3.61 nM
"YXEGTFTSDYSIXLDKKAQXEFIEYLIAGGPSSGAPPPS (Aib2; αMeL13; K17((2-[2-(2-Amino-ethoxy)-ethoxy]-acetyl)2-(γ-Glu)-CO-(CH2)18-CO2H); Aib20; C-terminal NH2, also called GG-731) [Example 289]",Ki,[1],0.0457 nM
same,Ki,[2],2.63 nM
FXEGTFTSDYSIXLDKKAQXAFIEYLIEAGPSSGAPPPS (Aib2; αMeL13; K17((2-[2-(2-Amino-ethoxy)-ethoxy]-acetyl)2-(γ-Glu)-CO-(CH2)16-CO2H); Aib20; C-terminal NH2) [Example 328],Ki,[1],0.136 nM
same,Ki,[2],3.98 nM
YXEGTFTSDYSIXLDEKAQXEFIEYLIAGGPSSGAPPPS (Aib2; αMeL13; K17((2-[2-(2-Amino-ethoxy)-ethoxy]-acetyl)2-(γ-Glu)-CO-(CH2)18-CO2H); Aib20; C-terminal NH2) [Example 331],Ki,[1],0.0851 nM
same,Ki,[2],11.4 nM
FXEGTFTSDYSIXLDKKAQXEFIEYLIAGGPSSGAPPPS (Aib2; αMeL13; K17((2-[2-(2-Amino-ethoxy)-ethoxy]-acetyl)2-(γ-Glu)-CO-(CH2)18-CO2H); Aib20; C-terminal NH2) [Example 338],Ki,[1],0.0831 nM
same,Ki,[2],3.23 nM
YXEGTFTSDYSIXLDEKAQXDFIEYLIAGGPSSGAPPPS (Aib2; αMeL13; K17((2-[2-(2-Amino-ethoxy)-ethoxy]-acetyl)2-(γ-Glu)-CO-(CH2)18-CO2H); Aib20; C-terminal NH2) [Example 344],Ki,[1],0.0507 nM
same,Ki,[2],14.8 nM
XXEGTFTSDYSIXLDEKAQXEFIEYLIAGGPSSGAPPPS (D-Tyr1; Aib2; αMeL13; K17((2-[2-(2-Amino-ethoxy)-ethoxy]-acetyl)2-(γ-Glu)-CO-(CH2)18-CO2H); Aib20; C-terminal NH2) [Example 342],Ki,[1],0.129 nM
same,Ki,[2],15.4 nM
XXEGTFTSDYSIXLDXKAQXAFIXYLIAGGPSSGAPPPS (D-Tyr1; Aib2; αMeL13; Orn16; K17((2-[2-(2-Amino-ethoxy)-ethoxy]-acetyl)2-(γ-Glu)-CO-(CH2)18-CO2H); Aib20; D-Glu24; C-terminal NH2) [Example 291],Ki,[1],0.129 nM
same,Ki,[2],3.16 nM
XXEGTFTSDYSIXLDXKAQXEFIXYLIAGGPSSGAPPPS (D-Tyr1; Aib2; αMeL13; Orn16; K17((2-[2-(2-Amino-ethoxy)-ethoxy]-acetyl)2-(γ-Glu)-CO-(CH2)18-CO2H); Aib20; D-Glu24; C-terminal NH2) [Example 354],Ki,[1],0.175 nM
same,Ki,[2],7.85 nM
XXEGTFTSDYSIXLDXKAQXAFIXYLIEGGPSSGAPPPS (D-Tyr1; Aib2; αMeL13; Orn16; K17((2-[2-(2-Amino-ethoxy)-ethoxy]-acetyl)2-(γ-Glu)-CO-(CH2)18-CO2H); Aib20; D-Glu24; C-terminal NH2) [Example 357],Ki,[1],0.316 nM
same,Ki,[2],7.02 nM
XXEGTFTSDYSIXLDXKAQXAFVXYLIAGGPSSGAPPPS (D-Tyr1; Aib2; αMeL13; Orn16; K17((2-[2-(2-Amino-ethoxy)-ethoxy]-acetyl)2-(γ-Glu)-CO-(CH2)18-CO2H); Aib20; D-Glu24; C-terminal NH2) [Example 362],Ki,[1],0.337 nM
same,Ki,[2],6.95 nM
